{
  "source": "patent US20230391863A1",
  "about": "(published 2023)",
  "binders": {"B1": {"name": "human Activin A (ligand)", "chain": "GLECDGKVNICCKKQFFVSFKDIGWNDWIIAPSGYHANYCEGECPSHIAGTSGSSLSFHSTVINHYRMRGHSPFANLKSCCVPTKLRPMSMLYYDDGQNIIKKDIQNMIVEECGCS", "modifications": "Activin A is a disulfide-linked homodimer of two identical inhibin beta A chains. The chain is given once."}},
  "key": {"[1]": {"biological_target": "A110 (SEQ ID NOs: 41 & 17) (Homo sapiens (Human), UniProt P0DOX7 1-214)", "experiment": "BLI (Octet RED96), affinity-purified antagonist captured on biosensor, ligand in solution", "description": "(§1) In this example, the human ligand binding activities of several bifunctional antagonist molecules were measured by biolayer interferometry (BLI) using Octet RED96 (FortéBIO, Pall Corporation, USA). Binding analysis was performed by capturing the polypeptide bifunctional antagonists to biosensors. To measure the rate of association and dissociation, the bifunctional antagonists-captured biosensors were dipped in wells containing different concentrations of ligands (such as TNF-α, Activin A, Activin B, Activin AB, myostatin, and GDF-11) diluted in 1× kinetic buffer for 10 min followed by 10-20 min in 1× kinetic buffer. The bifunctional polypeptide antagonists-captured sensors were also submerged in wells containing 1× kinetic buffer to allow single reference subtraction in order to compensate for natural dissociation of the captured bifunctional antagonists. The binding sensorgrams were collected using the 8-channel detection mode on the biosensor. Data were acquired and analyzed using the FortéBIO data acquisition software v11.1 (FortéBIO, Pall Corporation, USA)."}, "[2]": {"biological_target": "A109 (SEQ ID NOs: 39 & 17) (Homo sapiens (Human), UniProt P0DOX7 1-214)", "experiment": "BLI (Octet RED96), affinity-purified antagonist captured on biosensor, ligand in solution", "description": "as §1"}},
  "data": [
    {"binder": "B1", "values": [
      {"measurement": "Kd", "setting": "[1]", "value": "~0.16", "unit": "nM"},
      {"measurement": "Kd", "setting": "[2]", "value": "~0.52", "unit": "nM"}
    ]}
  ]
}
